# Data taken from the supplement of paper PMC12042874.
# ± gives the uncertainty stated by the source.
# Experiment: amyloid nucleation score (Sup35N fusion, yeast selection) (log enrichment); library NNK3; higher = more nucleation; inactive = no reads after selection
# Outline: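 Psi-negative yeast expressed Sup35N fused to peptides of 20 random codons. They were induced 24 hours with 100 μM copper sulfate, grown 7 days at 30°C without adenine and uracil, and their plasmid inserts from input and output were Illumina-sequenced. The nucleation score is the DiMSum log enrichment of output over input reads, centred on the mode score of non-aggregating sequences. Sequences with under 100 input reads were excluded.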
row,Substance,amyloid nucleation score
1,PVARRVMDYKAGSRV,inactive
2,PLSNNKVVWWYYL,inactive
3,VWTRTWLLMTCHCNRFKDCS,1.67 ± 0.12
4,VAFMIHYMKLPKYSHPWVHN,0.041 ± 0.59
5,GSWDVKLSF,inactive
6,FLSVECLRAMTWCQLLDAGS,inactive
7,RSLWALSPENRPLGKVS,inactive
8,SCLTIGWLNVVSFWI,1.97 ± 0.082
9,VDMSNFRANVVTHSPIGGLR,inactive
10,QRTFG,inactive
11,IDRLLLNTKYIVQGLPNWTK,inactive
12,LFYLYF,inactive
13,KYFIINYSVSSNGRKAHYCQ,2.28 ± 0.065
14,CLVSTGYHVRCVIVFMTTQG,inactive
15,YMWKVVDCSPVVSTS,-0.352 ± 1.3
16,INKSWGVFP,0.687 ± 0.18
17,QFFIFFACLVLVVITLT,2.53 ± 0.07
18,KMSAPWEGQCECCGCDF,inactive
19,NENFTNAQQNFYDCVF,inactive
20,HYYINNTWMFKVYNRLLKRR,2.51 ± 0.057
21,MRLRLYINVSG,inactive
22,LKWQVRHLWGNDVVGHRYTH,-0.546 ± 0.6
23,CQRPWNRTRR,inactive

row,Substance,amyloid nucleation score
1,SYYLITDS,inactive
2,SDERCLFGVQRYMHVFLRPI,inactive
3,TYFLSDWWRDRSNWLWFLAH,inactive
4,SGFFMMVYRR,-0.364 ± 0.75
5,PYWIGNIFVEPSSD,inactive
6,VMLNNCRGYLANCDSCSW,inactive
7,GGTNVFGAWSHNQRILCQKG,inactive
8,WDVTNLAGFLNDPVSLKLS,inactive
9,CELVAQFPKFFAFYIFYDDT,inactive
10,IVKVLFNSFGGWWYAHGLYV,inactive
11,WRVADTTEARMTGWGVWQWY,inactive
12,RMLLVEYCMFDFPDSFVRCN,0.131 ± 0.23
13,YNDKGTV,inactive
14,GGWLLSEGLC,inactive
15,CLLPFTTGYDFFLHQIEGWG,inactive
16,WRFRPVVYQRRPY,inactive
17,DPSNACPWGR,inactive
18,TTFSLTLIGFNDSGVKLLM,2.21 ± 0.069
19,WQYLNFS,0.75 ± 0.29
20,YVVVCSCAWS,2.63 ± 0.074
21,YCYLGG,-0.36 ± 0.8
22,VIRPGQYVIWFSRVILSFLF,inactive
23,DMGLYLFFIYLCGVRDLLST,inactive

row,Substance,amyloid nucleation score
1,MVKSKSTLTCNSIEPCIVIF,inactive
2,QFDLAMMSVVCYVFFMYWFL,inactive
3,WNYRFYPVKRNGSFLSRIVR,-0.47 ± 0.8
4,GFIGK,inactive
5,DQYLTVSHKTTTFRMCPQSG,inactive
6,ALKSPDSD,inactive
7,SETDFYHGFIWGIPIGALSG,inactive
8,WAEREDAAVSLGLWYGDTCF,inactive
9,FKSLLSRISHFKFASGWYVH,inactive
10,SWGMLSY,inactive
11,IYIAKLHEFSIRYVLPVWYI,inactive
12,AKQVGLY,inactive
13,RIWPSGSC,inactive
14,YSVVNDSGIFFYVGHHVFAV,inactive
15,TLRVYAMVLTWAPKLSFWRS,inactive
16,NAFLIGTDILRFMRVLFKQL,inactive
17,RCLCDPGYCCIFISENWIL,1.74 ± 0.064
18,HEIQGC,inactive
19,AKWSGFYYVLMYFFMLHLRY,inactive
20,SLTALDNWCRIFAMPVLSWK,inactive
21,RYEFS,inactive
22,GIFVSMTLFILKILFARYVR,inactive
23,LFLAKRSLSDTLFQPDPFSR,inactive

row,Substance,amyloid nucleation score
1,LSGENQLG,inactive
2,QCRSLITRWGDSVYCLWTK,inactive
3,VTCPNFQKIYRQGCYGGFDT,inactive
4,VMFRCN,inactive
5,WDTILDLGGNDVEGSFPVTE,inactive
6,SIINLDLTAGHRYFYSSRSR,2.11 ± 0.071
7,TVTWDWNRSEEGRCYLLLWV,inactive
8,DFYRSEQGDWSNLHSC,inactive
9,QLCGLAAWDFFCLVGHILKK,1.23 ± 0.095
10,KRYVCSTVTMLNCQVR,inactive
11,YMSSYRKEDCGQWLDEWPMA,inactive
12,VNFYADRASVHVHSVFHTQD,inactive
13,RVIIRNANSILGTPQSDHNQ,0.706 ± 0.18
14,LRVTKQVLSSMMFTITFGGD,inactive
15,SMCGNWGNWASVGWNFCWRV,inactive
16,SFFFHSKSSGKTLNWSSDKA,0.956 ± 0.091
17,PHCPELEQQVKCGTS,0.178 ± 0.26
18,FYSFCQSKSLMTFSGDLPPS,inactive
19,KLLRQNSY,inactive
20,VRSCAKLPSVHKYLAQARRL,inactive
21,GYSSTRNLAA,inactive
22,NVNILFDNLIRDWFVSMWED,inactive
23,TTDFSNMLDLSGVKVSGVLP,inactive

row,Substance,amyloid nucleation score
1,EYSVRADPGREMNGEISAWV,inactive
2,SVIYVLYKVW,inactive
3,VSRKMRLVWTRLVER,inactive
4,YMVVFSVNDRMFVPFY,0.926 ± 0.15
5,GMSCWGSMQWNVL,0.766 ± 0.17
6,SMVNWFMLRTAVVVQSRVAV,inactive
7,GGYVRSNCGRGVVPMVTRMA,inactive
8,FTIGRYILFVMKDFVFLWFV,inactive
9,YRWAFRWRLG,inactive
10,WPESIFKLRYRSGCCTEVND,inactive
11,LSILTFGSCTNKSH,inactive
12,GFCLQSNLCIIGRSFWTFLI,0.629 ± 0.55
13,KVSCEYSNNKWF,inactive
14,LDVGIVYSLVVCRKIRRSL,inactive
15,KSLTAYSLFVASYLSSFEWG,inactive
16,PVVQCNLFFVMVYTLGIRCV,-0.579 ± 0.98
17,RILVMVNKG,0.81 ± 0.17
18,LMRNSMLKTCFRSTAFH,inactive
19,LFFLTCRCVRNAYHRYMVCI,inactive
20,IRRSLAR,inactive
21,SIKLGFYIIIFDLWYSPMMV,inactive
22,VDSSRIKCSNVN,inactive
23,LPSYLESYYCVRVISGFYLS,inactive

row,Substance,amyloid nucleation score
1,ERVTRSMWTVGKRYRTGK,inactive
2,STGFGE,inactive
3,FVGYINILLIADSALGVRIL,1.64 ± 0.076
4,KLLLYFKYLMPVELISWSTL,inactive
5,FRYLNLKKDD,inactive
6,FWFFTSMLVSVCLMRASRCL,inactive
7,LFSWRKYGVNHQLLGVEIQS,inactive
8,CIAMGTISFQFPVLMRYYLC,inactive
9,FSRTSCVGDCYCGAYNRLSG,2.02 ± 0.095
10,TYCLKLMSQAAPTIEKT,inactive
11,PYSNTKGANELQSYRRYVVS,inactive
12,VCVSVRDTCGLCLLVYDNTV,2.11 ± 0.079
13,CFKFWWGIRENFKFLGDVMR,inactive
14,VTVCSFLLVSRNRNRLRRIY,inactive
15,NLNYNLSPLTEYSVSD,inactive
16,FNDLSAVFYLQGLKLDL,inactive
17,IVGIKVDIYNTSGCS,1.7 ± 0.12
18,FFLSTTGSMPHFPFKVSSSF,0.088 ± 0.24
19,PGSFNLILVTYIGLLQKLLH,0.993 ± 0.16
20,VLGILVDFDLIKV,inactive
21,QLIVRSGKDSGVLWNLGQYR,inactive
22,SFYFWSDAYACIKARRM,inactive
23,EILVVVPIAGEMSIVFMRGW,inactive

row,Substance,amyloid nucleation score
1,ICPWDIQRINMLMGRVDWLR,inactive
2,NLTYVMGSGWLLYQCVIM,2.61 ± 0.057
3,SYNRAA,inactive
4,VNFLSGWEPVIVKYHRSA,inactive
5,CSLTKAVFQRQPLRRSKGTK,inactive
6,RDNYDAFMIL,inactive
7,LSECLRHGSDDTRFEVVGQD,1.34 ± 0.097
8,ALCSKGMGANSAKTK,inactive
9,YSLGITGPHEAHQIVNLPWW,inactive
10,FVYFFCVSLTSSSPSDCDWP,1.6 ± 0.069
11,LDKVSNSCTPIWPFVIET,inactive
12,TAYSLMSIVFGWQPPKCGYE,0.648 ± 0.2
13,VGSITVRLWYILECGEEVDC,inactive
14,KDLCPFARPASRLHRVACME,inactive
15,CRLANHLEIAVAVTSYEGED,inactive
16,VFFSWPMARKCEGSEDHPNF,0.005 ± 0.98
17,RDYLYGNDMSNVKGYRRRWY,inactive
18,NVFMTWYTARGFMCYPSWDR,0.324 ± 0.43
19,KSFLLPCFCRTLWTWMHRHA,1.11 ± 0.14
20,CLFFKHLLLGDDVLLLTYLR,inactive
21,KTHTPTVQMEL,inactive
